In patent US20250136938A1:

Target: KRAS^G12V-reactive TCR (Pt. 4148)
Test: tetramer staining, flow cytometry on 41BB-enriched CD8 memory T cells of Pt. 4148

## HLA-A*11:01-KRAS^G12V 9-mer tetramer (from UniProt P01116 8-16; P61769 21-119) (peptide-MHC)
  percent of memory CD8 cells in the culture bound by tetramer: 15.9%
